According to paper PMC1851628 (Nucleic Acids Research, 2007):

Biological target: the molecule itself
Assay: AUC

B1: RepB initiator protein of plasmid pMV158 (natural protein, UniProt P13921 1-210, looked up)
chain: MAKEKARYFTFLLYPESIPSDWELKLETLGVPMAISPLHDKDKSSIKGQKYKKAHYHVLYIAKNPVTADSVRKKIKLLLGEKSLAMVQVVLNVENMYLYLTHESKDAIAKKKHVYDKADIKLINNFDIDRYVTLDVEEKTELFNVVVSLIRAYTLQNIFDLYDFIDENGETYGLTINLVNEVIAGKTGFMKLLFDGAYQRSKRGTKNEER
stoichiometry N: 6
